According to US9259432B1, “Composition and methods for targeted delivery of a therapeutic compound to the brain or spinal cord of a subject for treatment of neurodegenerative diseases” (Parminder J. S. Vig, priority 2011, dated 2016):

Columns and labels:
S100B = target: T1, S100B (Homo sapiens, UniProt P04271); assay: Tryptophan fluorescence quenching binding studies
T1 construct: purchased Sigma-Aldrich
T1 sequence (P04271 2-92 limits assumed): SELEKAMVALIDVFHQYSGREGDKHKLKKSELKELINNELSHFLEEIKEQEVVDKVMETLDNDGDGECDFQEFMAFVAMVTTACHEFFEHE
Description: The tryptophan fluorescence of 5.0 μM Synb1-ELP-TRTK, 5.0 μM Synb1-ELP-GGC and 5.0 μM TRTK12 were measured using an Aminco Bowman Series 2 fluorescent spectrophotometer with and Excitation wavelength of 295 nm and an Emission wavelength of 350 nm in 25 mM TrisHCL and 0.1 mM CaCl2 at 12° C. (to avoid aggregation of ELP) or in a solution of containing 25 mM TrisHCL, 0.1 mM CaCl2 and 1 mM EGTA at 12° C. S100B was titrated from 100 nM up to 3.0 μM into the various peptide solutions and changes in tryptophan fluorescence were recorded into an Excel file and graphs produced. A Fluorescence % was plotted against free S100B concentration using GraphPad Prism software. A Fluorescence % was calculated as follows: [(Maximum fluorescence−Observed fluorescence)/(Maximum fluorescence−Minimum Fluorescence)]×100%. Where the maximum fluorescence is the fluorescence of 5.0 μM Synb1-ELP-TRTK or 5.0 μM TRTK12 before titration of S100B and the minimum fluorescence is the fluorescence of 5.0 μM Synb1-ELP-TRTK or 5.0 μM TRTK12 fully saturated with bound S100B. […]
Alterations in the binding affinity of a peptide due to its fusion to ELP have never been studied previously. […] Fluorescent spectroscopy is a sensitive tool used to monitor changes in the local environment of tryptophan residues that occur during a protein-ligand binding event; furthermore, changes in tryptophan fluorescence can be used to calculate binding affinity (Weljie and Vogel, 2000, Bocedi et al., 2004). Previous work has shown that S100B binding reduces tryptophan fluorescence of TRTK12 and like peptides (Ivanenkov et al., 1995). The tryptophan fluorescence of 5.0 μM Synb1-ELP-TRTK and 5.0 μM Synb1-ELP-GGC were measured using a fluorescent spectrophotometer with an Excitation wavelength of 295 nm and an Emission wavelength of 350 nm in 25 mM TrisHCL and 0.1 mM CaCl2 at 12° C. At 295 nm, tryptophan emission spectrum is dominant over the weaker tyrosine and phenylalanine fluorescence (Vivian and Callis, 2001). […] W755 has very little fluorescence at 350 nm which may be due to the 150 neighboring VPGXG repeats of ELP (FIG. 12A). […]

SCA1/+ mice = assay: Bar cross test; format: in vivo; conditions: IP, 10 doses every other day for 3 wks, with and without heat
Description: A minimum of five 2 wks old SCA1/+mice were treated IP with vehicle (saline), ELP-GGC or ELP-TRTK peptides multiple times (total 10 doses) every other day for 3 wks. Some animals were subjected to hyperthermia. After completion of the treatments, animals were subjected to behavioral tests.
Bar cross test. The bar-crossing apparatus for testing balance and fine motor coordination consisted of a horizontal U-shaped platform made of wood supported on 30 cm legs. The two parallel 30-cm-long bars of the U were wide enough (18 mm) for the mice to walk easily, whereas the piece connecting them, the challenge bar, was also 30 cm long but only 2 mm wide. Animals were placed on one of the wide bars and allowed to move about on the apparatus for 5 min. After the spontaneous activity portion of the bar cross test, animal were subjected to a forced task. In this task, the mice were placed in the middle of the challenge bar in order to force a crossing attempt. A maximum of 120 sec was allowed for mice to stay on the bar, and the latency to fall (on a padded surface; height=30 cm) or cross (Cross) successfully was measured in seconds. The surface of the apparatus was cleaned with mild soap solution and air-dried between mice. […]

[1] = IgG levels in plasma by ELISA; format: in vivo, mice; conditions: 100 mg/kg, treated multiple times, no heat; samples diluted 1:50,000
Description: IgG levels in plasma of mice treated withof SynB1-ELP-GGC (100 mg/kg) and SynB1-ELP-TRTK (100 mg/kg) were obtained. Mice were treated multiple times without induction of hyperthermia. IgG levels were measured using ELISA. Samples were diluted 1:50,000 and compared against a standard curve generated using a mouse IgG standard.

impact on S100B binding affinity compared to the TRTK12 peptide alone (S100B): 2 fold | Kd (S100B; 5.0 μM peptide, 25 mM TrisHCL, 0.1 mM CaCl2, 12° C.): 518 ± 80 nM | effect of S100B titration on tryptophan fluorescence at 350 nm with calcium depleted (S100B; 25 mM TrisHCL, 0.1 mM CaCl2 and 1 mM EGTA): no effect
Substance: Synb1-ELP-TRTK: thermally responsive S100B inhibitory polypeptide: Synb1 cell penetrating peptide, elastin-like polypeptide (ELP) and TRTK12 peptide fused
hyperactivity, slip frequency, Sniff Up and down frequency (SCA1/+ mice): suppresses these activities | IgG level in plasma, OD Value [1]: 0.2552
